According to US20140241987A1:
Residue numbers refer to the chain shown, from its start.

Assays:
[1] = target: α-synuclein fibrils (human), P37840; assay: inhibition ELISA, fibrils against monomers; details: remark: other sources report otherwise
[2] = target: α-synuclein fibrils (human), P37840; assay: SPR, BIAcore X100, fibrils immobilised on CM5, mAb injected; details: remark: other sources report otherwise

B1: Syn-F1 (antibody)
chain 1: DVQLVESGGDLVQPGGSRKLSCAASGFTFSSFGMHWVRQAPEKGLEWVAYINSGSSTIYYADTVKGRFTISRDNPKNTLFLQMTSLRSEDTAMYYCARGNNPGTGYYYSMDYWGQGTSVTVSS
chain 2: not shown
Fold Affinity to Fibrils [1]: 16600 fold | Kd [2]: 0.127 nM | koff [2]: 0.00156 s⁻¹ | kon [2]: 1.23e+07 M⁻¹ s⁻¹

B2: Syn-F2 (antibody)
chain 1: B1 chain 1 with D10G, N52S, S109A
chain 2: not shown
Fold Affinity to Fibrils [1]: 3140 fold | Kd [2]: 2.69 nM | koff [2]: 0.00338 s⁻¹ | kon [2]: 1.26e+06 M⁻¹ s⁻¹
